Measurements from patent publication US20180303937A1, “A COMPOSITION FOR CONTROLLED RELEASE OF A BIOMOLECULE, METHOD OF PREPARATION AND USES THEREOF” (CENTRO DE NEUROCIENCIAS E BIOLOGIA CELULAR, priority 2015, published 2018).

System: SC-1 mouse fibroblasts
Assay: Cytotoxicity of BSA-dsDNA51.7-AuNR (Celltiter-Glo ATP assay)
Type: cell-based
Settings: 50 μg/mL NR; irradiation 1.25 to 2 W/cm^2, 2 min
Experimental: FIG. 7: Cytotoxicity of BSA-dsDNA51.7-AuNR. Mouse fibroblasts were seeded on a 96 well plate (4×10^3 cells/well), left to adhere for 24 h and then incubated with different concentrations of BSA-dsDNA51.7-AuNR for 4 h. After incubation, the cells were washed with medium to remove non-internalized AuNR. Some of the conditions were irradiated for 2 min with 1.25 or 2 W/cm^2. Then, the plate was left in the incubator for 24 h. The ATP production was measured by a Celltiter-Glo Luminescent Cell Viability Assay (Promega).
Cytotoxicity of BSA-dsDNA51.7-AuNR. SC-1 mouse fibroblasts were grown in DMEM supplemented with 10% fetal bovine serum (FBS), at 37° C. in a fully humidified air containing 5% CO2. To assess the cytotoxicity of gold NRs, fibroblasts were seeded on a 96 well plate (4×10^3 cells/well), left to adhere for 24 h and then incubated with BSA-dsDNA51.7-AuNR for 4 h. After incubation, the cells were washed with medium to remove non-internalized NR. In some conditions, after incubation with BSA-dsDNA51.7-AuNR, the cells were washed and irradiated with a fiber coupled Roithner laser (785 nm). Each well was placed below the end of the fibre and irradiated with a power density of 1.25 and 2 W/cm^2 for 2 min. Then cells were left in the incubator for 24 h and the ATP production was measured by a Celltiter-Glo Luminescent Cell Viability Assay (Promega).

BSA-dsDNA51.7-AuNR: gold nanorods carrying BSA via dsDNA with melting temperature 51.7° C.
cytotoxic effects (ATP production): do not show significant cytotoxic effects
